# Experimental data as given in patent US20240117018A1.
# Columns and labels:
# Assay in all cases: cell-based or functional assay
# [1] = target: HIV-1 Env of pseudovirus ZM197M.PB7 (HIV-1)
# [2] = target: HIV-1 Env of pseudovirus Du422.1 (HIV-1)
# [3] = target: HIV-1 Env of pseudovirus Ce1086_B2 (HIV-1)
# [4] = target: HIV-1 Env of pseudovirus QH0692.42 (HIV-1)
# [5] = target: HIV-1 Env of pseudovirus 263-8 (HIV-1)
# [6] = target: HIV-1 Env of pseudovirus THRO4156.18 (HIV-1)
# [7] = target: HIV-1 Env of pseudovirus ZM109F.PB4 (HIV-1)
# [8] = target: HIV-1 Env of pseudovirus BF1266.431a (HIV-1)
# [9] = target: HIV-1 Env of pseudovirus CAP210.2.00.E8 (HIV-1)
# [10] = target: HIV-1 Env of pseudovirus MS208.A1 (HIV-1)
# [11] = target: HIV-1 Env of pseudovirus Ce703010054_2A2 (HIV-1)
# [12] = target: HIV-1 Env of pseudovirus X2088_c9 (HIV-1)
# [13] = target: HIV-1 Env of pseudovirus Ce1176_A3 (HIV-1)
# [14] = target: HIV-1 Env of pseudovirus 3365.v2.c2 (HIV-1)
# [15] = target: HIV-1 Env of pseudovirus CAP45.2.00.G3 (HIV-1)
# [16] = target: HIV-1 Env of pseudovirus 6244_13_B5_4576 (HIV-1)
# [17] = target: HIV-1 Env of pseudovirus BJOX010000.06.2 (HIV-1)
# [18] = target: HIV-1 Env of pseudovirus 246F C1G (HIV-1)
# [19] = target: HIV-1 Env of pseudovirus 1054_07_TC4_1499 (HIV-1)
# [20] = target: HIV-1 Env of pseudovirus R3265.c06 (HIV-1)
# [21] = target: HIV-1 Env of pseudovirus Ce1172_H1 (HIV-1)
# [22] = target: HIV-1 Env of pseudovirus CNE21 (HIV-1)
# [23] = target: HIV-1 Env of pseudovirus Q842.d12 (HIV-1)
# [24] = target: HIV-1 Env of pseudovirus CNE58 (HIV-1)
# [25] = target: HIV-1 Env of pseudovirus CAAN5342.A2 (HIV-1)
# [26] = target: HIV-1 Env of pseudovirus T278-50 (HIV-1)
# [27] = target: HIV-1 Env of pseudovirus A07412M1.vrc12 (HIV-1)
# [28] = target: HIV-1 Env of pseudovirus CNE19 (HIV-1)
# [29] = target: HIV-1 Env of pseudovirus Ce704809221_1B3 (HIV-1)
# [30] = target: HIV-1 Env of pseudovirus CNE52 (HIV-1)
# [31] = target: HIV-1 Env of pseudovirus C2101.c01 (HIV-1)
# [32] = target: HIV-1 Env of pseudovirus PVO.4 (HIV-1)
# [33] = target: HIV-1 Env of pseudovirus SC05_8C11_2344 (HIV-1)
# [34] = target: HIV-1 Env of pseudovirus 0815.v3.c3 (HIV-1)
# [35] = target: HIV-1 Env of pseudovirus Ce0393_C3 (HIV-1)
# [36] = target: HIV-1 Env of pseudovirus X1254_c3 (HIV-1)
# [37] = target: HIV-1 Env of pseudovirus P0402_c2_11 (HIV-1)
substance,measurement,setting,value
N49P7.1 (antibody),IC50,[1],0.144 µg/mL
same,IC80,[1],0.539 µg/mL
same,MPI,[1],100
same,IC50,[2],3.76 µg/mL
same,IC80,[2],15.7 µg/mL
same,MPI,[2],93
same,IC50,[3],0.121 µg/mL
same,IC80,[3],0.742 µg/mL
same,MPI,[3],99
same,IC50,[4],0.764 µg/mL
same,IC80,[4],2.71 µg/mL
same,MPI,[4],100
same,IC50,[5],0.104 µg/mL
same,IC80,[5],0.392 µg/mL
same,MPI,[5],100
same,IC50,[6],3.07 µg/mL
same,IC80,[6],12.6 µg/mL
same,MPI,[6],98
same,IC50,[7],0.055 µg/mL
same,IC80,[7],0.199 µg/mL
same,MPI,[7],100
same,IC50,[8],0.033 µg/mL
same,IC80,[8],0.11 µg/mL
same,MPI,[8],100
same,IC50,[9],2.03 µg/mL
same,IC80,[9],7.3 µg/mL
same,MPI,[9],99
same,IC50,[10],0.12 µg/mL
same,IC80,[10],0.431 µg/mL
same,MPI,[10],100
same,IC50,[11],0.085 µg/mL
same,IC80,[11],0.364 µg/mL
same,MPI,[11],100
same,IC50,[12],0.199 µg/mL
same,IC80,[12],0.726 µg/mL
same,MPI,[12],100
same,IC50,[13],0.279 µg/mL
same,IC80,[13],1.01 µg/mL
same,MPI,[13],100
same,IC50,[14],0.088 µg/mL
same,IC80,[14],0.289 µg/mL
same,MPI,[14],100
same,IC50,[15],0.086 µg/mL
same,IC80,[15],0.567 µg/mL
same,MPI,[15],100
same,IC50,[16],0.184 µg/mL
same,IC80,[16],0.493 µg/mL
same,MPI,[16],100
same,IC50,[17],0.132 µg/mL
same,IC80,[17],0.623 µg/mL
same,MPI,[17],100
same,IC50,[18],0.049 µg/mL
same,IC80,[18],0.165 µg/mL
same,MPI,[18],100
same,IC50,[19],0.627 µg/mL
same,IC80,[19],2.98 µg/mL
same,MPI,[19],100
same,IC50,[20],0.059 µg/mL
same,IC80,[20],0.328 µg/mL
same,MPI,[20],100
same,IC50,[21],17.1 µg/mL
same,IC80,[21],> 50 µg/mL
same,MPI,[21],78
same,IC50,[22],1.58 µg/mL
same,IC80,[22],12.2 µg/mL
same,MPI,[22],96
same,IC50,[23],0.028 µg/mL
same,IC80,[23],0.08 µg/mL
same,MPI,[23],100
same,IC50,[24],0.049 µg/mL
same,IC80,[24],0.107 µg/mL
same,MPI,[24],100
same,IC50,[25],0.55 µg/mL
same,IC80,[25],1.59 µg/mL
same,MPI,[25],100
same,IC50,[26],42.4 µg/mL
same,IC80,[26],> 50 µg/mL
same,MPI,[26],56
same,"IC50 (neutralisation, TZM.bl cells)",[27],0.232 µg/mL
same,"IC80 (neutralisation, TZM.bl cells)",[27],1.07 µg/mL
same,MPI,[27],100
same,IC50,[28],0.027 µg/mL
same,IC80,[28],0.128 µg/mL
same,MPI,[28],100
same,IC50,[29],0.211 µg/mL
same,IC80,[29],1.35 µg/mL
same,MPI,[29],100
same,IC50,[30],0.021 µg/mL
same,IC80,[30],0.058 µg/mL
same,MPI,[30],100
same,IC50,[31],0.076 µg/mL
same,IC80,[31],0.425 µg/mL
same,MPI,[31],100
same,IC50,[32],0.124 µg/mL
same,IC80,[32],0.421 µg/mL
same,MPI,[32],100
same,IC50,[33],0.189 µg/mL
same,IC80,[33],0.688 µg/mL
same,MPI,[33],100
same,"IC50 (neutralisation, TZM.bl cells)",[34],0.023 µg/mL
same,"IC80 (neutralisation, TZM.bl cells)",[34],0.064 µg/mL
same,MPI,[34],100
same,IC50,[35],0.23 µg/mL
same,IC80,[35],1.02 µg/mL
same,MPI,[35],100
same,IC50,[36],3.96 µg/mL
same,IC80,[36],18.2 µg/mL
same,MPI,[36],96
same,IC50,[37],0.029 µg/mL
same,IC80,[37],0.115 µg/mL
same,MPI,[37],100
VRC07 (antibody),IC50,[1],0.307 µg/mL
same,IC80,[1],1.27 µg/mL
same,IC50,[2],> 50 µg/mL
same,IC80,[2],> 50 µg/mL
same,IC50,[3],0.128 µg/mL
same,IC80,[3],0.84 µg/mL
same,IC50,[4],0.5 µg/mL
same,IC80,[4],1.86 µg/mL
same,IC50,[5],0.103 µg/mL
same,IC80,[5],0.282 µg/mL
same,IC50,[6],2.4 µg/mL
same,IC80,[6],12.2 µg/mL
same,IC50,[7],0.112 µg/mL
same,IC80,[7],0.389 µg/mL
same,IC50,[8],0.032 µg/mL
same,IC80,[8],0.117 µg/mL
same,IC50,[9],> 50 µg/mL
same,IC80,[9],> 50 µg/mL
same,IC50,[10],0.12 µg/mL
same,IC80,[10],0.425 µg/mL
same,IC50,[11],0.19 µg/mL
same,IC80,[11],0.912 µg/mL
same,IC50,[13],0.52 µg/mL
same,IC80,[13],2.6 µg/mL
same,IC50,[14],0.038 µg/mL
same,IC80,[14],0.109 µg/mL
same,IC50,[15],0.355 µg/mL
same,IC80,[15],3.09 µg/mL
same,IC50,[16],0.065 µg/mL
same,IC80,[16],0.23 µg/mL
same,IC50,[18],0.286 µg/mL
same,IC80,[18],1.04 µg/mL
same,IC50,[19],0.239 µg/mL
same,IC80,[19],1.46 µg/mL
same,IC50,[21],> 50 µg/mL
same,IC80,[21],> 50 µg/mL
same,IC50,[22],0.05 µg/mL
same,IC80,[22],0.222 µg/mL
same,IC50,[23],0.015 µg/mL
same,IC80,[23],0.051 µg/mL
same,IC50,[24],0.11 µg/mL
same,IC80,[24],0.298 µg/mL
same,IC50,[25],0.307 µg/mL
same,IC80,[25],1.05 µg/mL
same,IC50,[28],0.092 µg/mL
same,IC80,[28],0.232 µg/mL
same,IC50,[29],0.273 µg/mL
same,IC80,[29],1.14 µg/mL
same,IC50,[30],0.042 µg/mL
same,IC80,[30],0.142 µg/mL
same,IC50,[32],0.063 µg/mL
same,IC80,[32],0.226 µg/mL
same,IC50,[33],0.133 µg/mL
same,IC80,[33],0.401 µg/mL
same,IC50,[35],0.182 µg/mL
same,IC80,[35],0.634 µg/mL
